Assay: label from the status in PepcDB records

Sequence	protein production
MKKKYFLCVFAVILFFTGFLFGNSPVNAAETDTSNVTYNYIDISTLTETQKNSIIKGNPNETLTNDYENYSFVYQKNTSEPTTNTDNTSDNNKNQNGTLLKAGDVGPNSYLIILGFILFGSGIGLLTLKKRHARQLLVFLVVLGGSSLLVGSIVQATENSNLKTQESQTVAKGTKETKQPESMEGYTYVGYIHTSKNNTPPVVEKGTVTVNYQDEQGNSLATSETLEGDIDQPYQTATKNIEGYQLKEVNGNTTGTFTEKAQVVTYVYQKVPVATVTVKYLDQDGNKIHDPQTISGNIGEPYDASTDKYKLRIEGYTLDTTKLPNNANGTFTNQAIEVTYIYTKEAQDVKITIKFVDSNGDPFVLTDLTTYKNGDLVPIYPNLDQYHMRLNYNQEIYNQGEAVPDIVIPAKEGETYSLPERMTFNILDDQGKQIPYVISQNADLSSTGIERWENYLSIPTNREGTLTSEDVVVTYQILVYGVMIPEP	failed
MKGHIRERSPGHWAIVLDVGEVDPKTGKKKRKWHSFTGTKREAQKECSRLITVLDQGLYVEPTKQTVAEFLNEWLAFVKPSVAPKTHERYTEICRKGLSPLIGNVILSKLKTDRIDAAFTTALTAPRVDHRTKKDQREPLPPLAPRTVHHYRRVLVKALGQAVTWERLSRNPATATTPPKVERQKMLAYDVGQTATLLETLRPTRMFVPVLLAVTCGLRRGEILALRWRHLELGDNRRQMSIEESAEQTADGVRYKEPKSGRARTVALSASTVAELKAHRARQAEEQLRLGIRPDADSFVVAQVDGQPLQPRSLTHEWVRVLGKTSLPRIRFHDLRHTHATQMLSAGVHPKIASERLGHSNIGITLDLYSHVMPGMQADAAEQVDVALQAAISSERKGK	failed
MDILKLLMVAILIGLTAFFVAVEFAIIKVRSSRIDQLVSEKRRGALAAKKVTSNLDEYLSACQLGITITALGLGWLGEPTIKHLLEPLFLKLNLSPAIASTVSFIIAFAVITFLHVVIGELAPKTFAIQRAEQVSLLLSKPLIYFYRIMYPFIWALNGSARLVTGLFGLHPASEHEVAHSEEELRLILSESYESGEINQREFKYVNNIFEFDNRVAKEIMVPRTEVIGLYEDEPFETHIKIIAQEKYTRYPVFGEDKDEIIGMVNVKDLFIRYIDGNRDEECSITPYTRPVIEVLENIPIHDLLLQMQRKHIPLAVLYDEYGGTAGIVTLEDILEEIVGEIRDEYDEDEHPPIEHISEGCKIVEGKVLISEVNDLFGIHLIADDVDTIGGWIMVQKQIVAEGDIIEKHGFSFKVLEKDMHQIKRVEIKKVEE	failed
MKNRSLTLRLISVLCLTALFVWLGSTLVAWWQVRHDVNKVFDAQQVLFAERLANSDLSTILLESSTTLNKNSQSVLKKSYDDDALAFAIFSKTGKLLFSDGRNGKDFIFNYKTGFYNANIYDDDDKWRIFWRMAANGELVIAVGQELDYREDLIEEMILGQMWIWFASLPILIIVLGWLIHKELRPIKRLSQEVQTRKSGDVSLLNTEGLPVEILPLVKNLNQFFDRTSAMLQRERRFTSDAAHELRSPLAALRIQIEVAQLAGDDVALREQALLHLTQGIDRASQLIEQLLTLSRLDNLQALETLQLLDWEAIVQSLISERYFVAEKRKITLVFEKESEPKQKQGQSILVSLMLRNLLDNAIKYCPEDTIVSVKISSSQIIIEDNGGGVEPEDLKKLGQRFYRPAGQNEKGSGLGLSIVMRIAELHGFKVRLENVVKEGRRIGLKAIISL	failed
MALARWGAALQRRWQAIDPAERAGFVAGARFYVGSLPPVFAWGLVTGVAMSKSVLTIPQAIGMTLLVYAGSSQLAVLPLMAAGLPVWTVLLTAFIVNVRFIIFSAGLMQHFSHLPFGRRVLIGFFNGDLPFVLFSQRYPGPGPERGKEGYLWGMALANWTIWQVSSLLGIVGASLFPDAWGLALAGTLALIPVMVSTIRSRATLMAVAVAAVLALVAFKLPYRLSLVIAVVGAMAAGLAGDEATARLQWQRRGAQPAPSEPKEGP	failed
AIAEEDEFIGEKTFQRYCAEFIKHSQQIGDSWEWRPSKDCSDGYMCKIHFQIKNGSVMSHLGASTHGQTCLPMEEAFELPLDDCEVIETAAASEVIKYEYHVLYSCSYQVPVLYFRASFLDGRPLTLKDIWEGVHECYKMRLLQGPWDTITQQEHPILGQPFFVLHPCKTNEFMTPVLKNSQKINKNVNYITSWLSIVGPVVGLNLPLSYAKATSQDERNVP	failed
MSLKVQGYANVVTLPNVTGRVIIVGDIHGCRAQLEDLLRAVSFKQGSDTLVAVGDLVNKGPDSFGVVRLLKRLGAYSVLGNHDAKLLKLVKKLGKKECLKGRDAKSSLAPLAQSIPTDVETYLSQLPHIIRIPAHNVMVAHAGLHPQRPVDRQYEDEVTTMRNLIEKEQEATGGVTLTATEETNDGGKPWASMWRGPETVVFGHDARRGLQEQYKPLAIGLDSRCVYGGRLSAAVFPGGCIISVPGWNGASAAAEGHHHHHH	not failed
MNLDETLLNRIKVIALLNLKLVRKLVIFIMVNCLVLSGIPAALCMSSAPVVYVTGDGSGDFNCDGTDDHVQINQALKFVAENSAYTTVYLKGPFTYVIDDTLLIGSNTILEGDSSAKIKLVNNANWESRKPMIKERSTGISGITIRGFTIDGNREGNTNVVSGKGYYNLIHLSSCQNIKVYDMYLTNNHGDGLKTDKCTNVEFYDNEIYLLGHDGLYASGCSDVEAYGNTITCRTNSGLRLYNTNKASFHDNVITSEGSGGAGIEIQKYNTPAMDDIEVYNNVIYKTALAGIWIFGSGSYSASTANVHVHHNQIYDTGTKTSNSIIGGIVSNGFSGLIENNVIDGAYGAGIVQKTVYSPAPSGSGFLLTVRNNILSNSRSSSGGGSGYGINNELSGTHSFVLQNNCYYGSAGGDSRNVQLSASDIKVDPQFADRSSHDYHLKSIAGRWNGKSWITDSASSPCIDAGYIASDYSKEPQDNGGRINIGTYGNTKYASKSGTTEVVTNQAPVLNSIQDATVEIGESLTFTVSASDAEEDSLSYSASGLPTGATFDSESGIFAWTPAVGQEGTYSVTFVVSDGELTDSATAIINVSKQEDTSKQEDPSTITGEVYDNRLREASPDIVYQSSPFIDVGAMSIGSYRDIMWFDLSVYADYSEVNSATLSLYWYYPAGKARPEDTVIEIYRPADSWNPDYVSWNKKDKRVAWNNAGGDWYDRNGVLQGSTPYATITLEGSDLPDNRYYELDVTDLVNEYISSKYENTGFLIKARTENNNYIAFYSNDCGNENQKPKLTVTEEASVSPIDVQPIDVTVSGAKDNRLREASAENVYQSSAYVDVGALSGVGRYRDMMQFDLSEYADYSEVNSATLFLYWYYPAGKARPEDTVIEIYRPADSWNPDYVSWNKKDKRVAWNNAGGDWYDRNGVLQGSTPYATITLEGSDLPDNRYYELDVTDLVNEYISGKYENTGFLIKARTENNNYIAFYSSEAGGENQRPKLNLQLKQ	failed
MSREKIEANREKILNGPIVPTLLVLAYPIIINQLVHVLYNLTDTFWLGKLGRIELSAPGTAWPLVWFLMSIGSGFVVAGFAFVSQYIGAGDYEKANRYAGALYSLLLIFATGMSIFGIVLAPYFLRFMKVSETIFPYALTYTRIIFAGIPFSFTLFAFNFLLRAIGDTKTPVKINIGTIILNIILDPFFIFGWGPFPRLGVAGAAIATMLSNSVGSLIGGYLLFTGKVGIHLTLENLKPDLKFYSRIFRVGLPSSIGDSTSALGFVVLTRVIFTVGRIYGEAHGIKGYEDVAFPTYSITNRLTNFMFAFSDGISMAMGTMVGQNIGARKYERAKEIAEKAMLINFTILSIGTLLFAIFRVPIFKFFVNDPMVIAESKKVVMYFSASLPFFGIFSAVNQVFNSAGHTKKSMVLGIIRLWILRIPLSYWLGVAMKDTAGMWLGMGLSNVIGALIGLAWFLKGSWLRGVIEEHH	failed
MEDGMNTFDLYYWPVPFRGQLIRGILAHCGCSWDEHDVDAIEGLMDCGAEKQPVAFMGPPVLIDRERNFAISQMPAIAIYLGERLDILPATVEGRTLSAKIVNDANDVLDELTLNGGREMWTPEKWQEFVPRLQKWIRIFADTGARNGLSAASGFMLGTEKIGVADIVTAILWTTVADRFPAIKGIIEDTSPIIWGLSRRVVATAPLAALNSKSFEEYGNAYCGGEIEKSLRKVAS	not failed
MRSIAMQAADLYVLQTAQSWLDAGQAAVLLTVARTWGSSPRPPGAMMAIRADGAVAGSVSGGCIEDDLIDQIRQRGIAALCPGARPALATYGVDGEQARRFGLPCGGTLQLVLEPLGAHSRLADLLARLRAHQTVRRSVRLADGAVTLEPAAADAEPRLDGAGFASVLGPRHRLLVVGAGQLSRYLCEMAIALDFDVTVSDPRQEYRAGWQVEGVALTTAMPDDMVIAARPDARTAVIALTHDPKLDDLALIDALQTPAFYVGALGSRANHARRVARLREHFGLTPAQLARLRGPAGIYIGSRTPPEIALSIMAEIVAGKNGAPLPPAASVAAGKARQPGGAGVIQAGLCATL	failed
MFFKQFYDNHLSQASYLVGCQRTGEAIIIDPVRDLSKYIEVADSEGLTITQATETHIHADFASGIRDVAKRLNANIYVSGEGEDALGYKNMPSKTQFVKHGDIIQVGNVKLEVLHTPGHTPESISFLLTDLGGGSSVPMGLFSGDFIFVGDIGRPDLLEKSVQIKGSTEISAKQMYESVQNIKNLPDYVQIWPGHGAGSPCGKALGAIPISTIGYEKINNWAFNEIDETKFIESLTSNQPAPPHHFAQMKQVNQFGMNLYQSYDVYPSLDNKRVAFDLRSKEAFHGGHTKGTINIPYNKNFINQIGWYLDFEKDIDLIGDKSTVEKAKHTLQLIGFDKVAGYRLPKSGISTQSVHSADMTGKEEHVLDVRNDEEWNNGHLDQAVNIPHGKLLNENIPFNKEDKIYVHCQSGVRSSIAVGILESKGFENVVNIREGYQDFPESLKLEHHHHHH	not failed
STSPEIASLSWGQMKVKGSNTTYKDCKVWPGGSRTWDWRETGTEHSPGVQPADVKEVVEKGVQTLVIGRGMSEALKVPSSTVEYLKKHGIDVRVLQTEQAVKEYNALVAQGVRVGGVFHSTC	not failed
MSTQDERQINTEYAVSLLEQLKLFYEQQLFTDIVLIVEGTEFPCHKMVLATCSSYFRAMFMSGLSESKQTHVHLRNVDAATLQIIITYAYTGNLAMNDSTVEQLYETACFLQVEDVLQRCREYLIKKINAENCVRLLSFADLFSCEELKQSAKRMVEHKFTAVYHQVAFMQLSHDLLIDIFSSDNLNVEKEETVREAAMLWLEYNTESRSQYLSSVLSQIRIDALSEVTQRAWFQGLPPNDKSVVVQGLYKSMPKFFKPRLGMTKEEMMIFIEASSENPCSLYSSVCYSPQAEKVYKLCSPPADLHKVGTVVTPDNDIYIAGGQVPLEKHKNKSQ	failed
MICCLGPRGSYSEKAAVTFSKAINDSEIQFEDSIYNVFKAVETNPEFFGVVPSENSIGGSVSITQDLLLEFPVKILGEVDISINHCLLGYDIKKVTEVLAHPQALAQCGHYITKNNWNITPVDSNAKAAKIVSEEKDEKLAAICGVENAEIYGLNVLDEYIQDFKNNTTRFFLICNKNK	failed
MPSLTPRCIIVRHGQTEWSKSGQYTGLTDLPLTPYGEGQMLRTGESVFRNNQFLNPDNITYIFTSPRLRARQTVDLVLKPLSDEQRAKIRVVVDDDLREWEYGDYEGMLTREIIELRKSRGLDKERPWNIWRDGCENGETTQQIGLRLSRAIARIQNLHRKHQSEGRASDIMVFAHGHALRYFAAIWFGLGVQKKCETIEEIQNVKSYDDDTVPYVKLESYRHLVDNPCFLLDAGGIGVLSYAHHNIDEPALELAGPFVSPPEEESQHGDV	not failed
MTRIAIALAQDFADWEPALLAAAARSYLGVEIVHATPDGMPVTSMGGLKVTPDTSYDALDPVDIDALVIPGGLSWEKGTAADLGGLVKRFRDRDRLVAGICAAASALGGTGVLNDVAHTGNALASHKAYPAYRGEAHYRDQPRAVSDGGVVTAAGSAPVSFAVEILKSLGLFGPEAEAELQIFAAEHR	not failed
